Measured values published in the RNAGym collection of RNA variant scans (doi:10.1073/pnas.2313332121).

B1: TPR t1 (parent)
chain: GACCAAUCUGCCCUCAGAGCUCGAGAACAUCUUCGGAUGCAGAGGAGGCAGGCUUCGGUGGCGCGAUAGCGCCAACGUCCUCAACCUCCAAUGCAUCCCACCACAUGAUGAUGCCUGAAGAGCCUUGGUUUUUUG

Variants of: B1
Test: polymerase ribozyme fitness, log enrichment relative to wild type (log ratio); higher = more active; in vitro selection for triplet polymerase activity
Method in brief: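 For each subunit of a heterodimeric triplet polymerase ribozyme, a mutant library was built by PCR and transcribed, then taken through a single in vitro selection round in triplicate. Selection involved annealing to a biotinylated primer, the partner subunit and triplets, incubation frozen at −7 °C, gel excision of extended constructs, capture on streptavidin beads and RT-PCR. Genotypes were retained after Illumina sequencing of inputs and outputs only with ≥10 input reads and ≥1 read in each output. Fitness is defined as the logarithm of a genotype's enrichment relative to wild-type enrichment, using inverse-variance-weighted averages across replicates, with the logarithm taken to base 2.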

In order of falling “polymerase ribozyme fitness (log ratio)” value:
1. GACCAAUCUGCCCUCAGAGCUCGAGAACAUCUUUGGAUGCAGAGGAGGCAGGCUUCGGUGGCGCGAUAGCGCCAACGUCCUCAACCUCCAAUGCAUCCCCCCACAUGAUGAUGCCUGAAGAGCCUUGGUUUUUUG  -3.69
2. GACCAAUCUGCCCUCAGAGCUCGAGAACAUCUUUGGAUGCAGAGGAGGCAGGCUUUGGUGGCGCGAUAGCGCCAACGUCCUCAACCUCCAAUGCAUCCCACCACAUGAUGAUGCAUGAAGAGCCUUGGUUUUUUG  -4.02
3. GACCAAUCUGCCCUCAGAGCUCGAGAACAUCUUUGGAUGCAGAGGAGGCAGGCUUCGGUGGCGCGAUAGCGCCAACGUCCUCAACCUCCAAUGCAUCCCACCACAUGAUGAUGCCUGAAGAGCCUUGGUUUUUUG  -4.05
4. GACCAAUCUGCCCUCAGAGCUCGAGAACAUCUUUGGAUGCAGAGGAGGCAGGCUUCGGUGGCGCGAUAGCGUCAACGUCCUCAACCUCCAAUGCAUCCCACCACAUGAUGAUGCCUGAAGAGCCUUGGUUUUUUG  -4.07
5. GACCAAUCUGCCCUCAGAGCUCGAGAACAUCUUGGGAUGCAGAGGAGGCAGGCUUCGGUGGCGCGAUAGCGCCAACGUCCUCAACCUCCAAUGCAUCCCACCACAUGAUGAUGCCUGAAGAGGCUUGGUUUUUUG  -4.46
6. GACCAAUCUGCCCUCAGAGCUCGAGAACAUCUUUGGAUGCAGAGGAGGCAGGCUUGGGUGGCGCGAUAGCGCCAACGUCCUCAACCUCCAAUGCAUCCCACCACAUGAUGAUGCCUGAAGAGCCUUGGUUUUUUG  -4.5
7. GACCAAUCUGCCCUCAGAGCUCGAGAACAUCUUGGGAUGCAGAGGAGGCAGGCUUCCGUGGCGCGAUAGCGACAACGUCCUCAACCUCCAAUGCAUCCCCCCACAUGAUGAUGCCUGAAGAGCCUUGGUUUUUUG  -4.64
8. GACCAAUCUGCCCUCAGAGCUCGAGAACAUCUUUGGAUGCAGAGGAGGCAGGCUUCGGUGGCGCGAUAGCGCCAACGUCCUCAACCUCCUAUGCAUCCCACCACAUGAUGAUGCCUGAAGAGCCUUGGUUUUUUG  -4.66
9. GACCAAUCUGCCCUCAGAGCUCGAGAACAUCUUGGGAUGCAGAGGAGGCAGGCUUCGGUGGCGCGAUAGCGCCAACGUCCUCAACCUCCAAUGCAUCCCACCACAUGAUGAUGCCUGAAUAGCCUUGGUUUUUUG  -4.75
10. GACCAAUCUGCCCUCAGAGCUCGAGAACAUCUUUGGAUGCGGAGGAGGCAGGUUUCGGUGGCGCGAUAGCGCCAACGUCCUCAACCUCCAAUGCAUCCCACCACAUGAUGAUGCCUGAAGAGCCUUGGUUUUUUG  -4.95
11. GACCAAUCUGCCCUCAGAGCUCGAGAACAUCUUUGGAUGUAGAGGAGGCAGGCCUCGGUGGCGCGAUAGCGCCAACGUCCUCAACCUCCAAUGCAUCCCACCACAUGAUGAUGCCUGAAGAGCCUUGGUUUUUUG  -4.99
12. GACCAAUCUGCCCUCAGAGCUCGAGAACAUCUUGGGAUGCAGAGGAGGCAGGCUUCGGUGGCGCGAUAGCGCCAACGUCCUCAACCUCCAAUGCAUCCCACCACAUGAUGAUGCCUGAAGAGUCUUGGUUUUUUG  -5.16
13. GACCAAUCUGCCCUCAGAGCUCGAGAACAUCUUUGGAUGCAGAGGAGGCAGGCUUCGGUGGCGUGAUAGCGCCAACGUCCUCAACCUCCAAUACAUCCCACCACCUGAUGAUGUCUGAAGAGCCUUGGUUUUUUG  -5.2
14. GACCAAUCUGCCCUCAGAGCUCGAGAACAUCUUGGGAUGCAGAGGACGCAGGCUUCGGUGGCGCGAUAGCGCCAACGUCCUCAACCUCCAAUGCAUCCCACCAAAUGAUGAUGCCUGAAGAGCAUUGGUUUUUUG  -5.21
15. GACCAAUCUGCCCUCAGAGCUCGAGAACAUCUUGGGAUGCAGAAGAGGCAGGCUUCGGUGGCGCGAUAGCGCCAACGUCCUCAACCUCCGAUGCAUCCCAUCACAUGAUGAUGCCUGAAGUGCCUUGGUUUUUUG  -5.28
16. GACCAAUCUGCCCUCAGAGCUCGAGAACAUCUUUGGAUGCAGAGGUGGCAGGCUUGGGUGGCGCGAUAGCGUCAACGUCCUCAACCUCCAAUGCAUCCCACCACAUGAUGAUGCCUGAACAGCCUUGGUUUUUUG  -5.35
17. GACCAAUCUGCCCUCAGAGCUCGAGAACAUCUUUGGAUGCAGAGGAGGCAGGCUUAGGUGGCGCGAUAGCGCCAACGUCCUAUACCUCCAAUGCAUACCACCACAUGAUGAUGCCUGAAGUGCCUUGGUUUUUUG  -5.4
18. GACCAAUCUGCCCUCAGAGCUCGAGAACAUCUUUGGAUGCUGAGGAGGCAGGCUUCGGUGGCUCGAUAGCGCCAACGUCCUCAACCUCCAAUGCAUCCCACCACAUGAAGAUGCAUGAAGAGCCUUGGUUUUUUG  -5.59
19. GACCAAUCUGCCCUCAGAGCUCGAGAACAUCUUGGGAUGCAGAGGAGGCAGGCUUCGGUGACGCGAUAGCGCCAACGUCCUCAACCUCCAAUGCAUCCCACCACAUGAUGAUGCCUGAAAAGCCUUGGUUUUUUG  -5.72
20. GACCAAUCUGCCCUCAGAGCUCGAGAACAUCUUGCGAUGCAGAGGAGGCAGGCUUCGGUGGCUCGAUAGCGCCAACGUCCUCAACCUCCAAUGCAUCCCACCACAUGAUGUUGCCUGAAGAGCCUUGGUUUUUUG  -5.76
21. GACCAAUCUGCCCUCAGAGCUCGAGAACAUCUUUGGAUGCAGAGGAGGCAGGCUUCGGUGGCGCGAUAGCGCCAACGUCCUCAACCUCCAAUGCAUCCCACCACGUGAUGAUGCCUGAAAAGCCUUGGUUUUUUG  -5.77
22. GACCAAUCUGCCCUCAGAGCUCGAGAACAUCUUUGGGUGCAGAGGAGGCAGGCUUCGGUGGCGUGAUAGCGCCAACGCCCUCAACCUCCAAUGCAUCCCACCACAUGAUGAUUCCUGAAGAGCCGUGGUUUUUUG  -5.79
23. GACCAAUCUGCCCUCAGAGCUCGAGAACAUCUUGGGAUGCAGAGGAGGCAGGCUUCGGUGACGCGAUAGCGCCAACGUCCUCAACCUCCAAUGCAUCCCACCACAUGAUGAUGCCUGAAGAGCCUUGGUUUUUUG  -5.85
24. GACCAAUCUGCCCUCAGAGCUCGAGAACAUCUUUGGAUGCAGAGGAGGCAGGCUUCGGUGGCGUGAUAGCGCCAACGUCCUCAACCUCCAAUGCAUCCCACCACAUGAUGAUUCCUGAAGAGCCUUGGUUUUUUG  -5.9
25. GACCAAUCUGCCCUCAGAGCUCGAGAACAUCUUGGGAUGCAGAGGAGGCAGGCUUCGGUGGCGCGAUAGCGCCAACGUCCUCAACCUCCAAUGCAUCCCACCACAUGAUGAAGCCUGAAGAGCCUUGGUCUUUUG  -6.03
26. GACCAAUCUGCCCUCAGAGCUCGAGAACAUCUUGGGAUGCAGAGGAGGCAGGCUUCGGUGGCUCGAUAGUGCCAACGUCCUCAACCUCCAAUGCAUCCCACCACAUGAUGAUGCCUGAAGAGCCUUGGUUUUUUG  -6.08
27. GACCAAUCUGCCCUCAGAGCUCGAGAACAUCUUUGGAUGCAGAGGAGGCAGGCUUCGGUGGCGCGAUAGUGCCAACGUCCUCAACCUCCAAUGCAUCCCACCACAUGAUGAAGCCUGAAGAGCCUUGGUUUUUUU  -6.08
28. GACCAAUCUGCCCUCAGAGCUCGAGAACAUCUUGGAAUGCAGAGGAGGAAGGCUUCGGUGGCGCGAUAGCGCCAACGUCCUCAACUUCCAAUGCAUCCCACCACAUGAUGAUGCCUGAAGAGCAUUGGUUUUUUG  -6.09
29. GACCAAUCUGCCCUCAGAGCUCGAGAACAUCUUGGGAUCCAGAGGAGGCAGGCUUCGGUGGCGCGAUAGCGCCAACGUCCUCAACCUCCAAUGCAUCCCACCACAUGAUGAUGCCUGAAUAGCCUUGGUUUUUUG  -6.09
30. GACCAAUCUGCCCUCAGAGCUCGAGAACAUCUUGGGAUGCAGAGGAGACAGCCUUCGGUGGCGCGAUAGCGCCAACGUCCUCAUCCUCCAAUGCAUCCCACCACAUGAUGAUGCCUGAAAAGCCUUGGUUUUUUG  -6.12
31. GACCAAUCUGCCCUCAGAGCUCGAGAACAUCUUGGAAUGCAGAGGAGGCAGGCUUCGGUGGCGCGAUAGCGCCAACGUCCUCAACCUCCAAUGCAUCCCACCACAUGAUGAUGCCUGAAGAGCCUUGGUUUUUUG  -6.25
32. GACCAAUCUGCCCUCAGAGCUCGAGAACAUCUUGGGAUGCAGAGGAGGCAGGCUUCGGUGCCGCGAUAGCGCCAACGUCCUCAACCUCCAAUGCAUCCAACCACAUGAUGAGGCCGGAAGAGCCUUGGUUUUUUG  -6.27
33. GACCAAUCUGCCCUCAGAGCUCGAGAACAUCUUGGGAUGCAGAGGAGGCAGGCUUCGGUGGCGCGAUAGCGCCAACGUCCUCAACCGCCAAUGCAUCCCACCACAUGAAGAUGCCUGAAGAGCCUUGGUUUUUUG  -6.29
34. GACCAAUCUGCCCUCAGAGCUCGAGAACAUCUUGGGAUGCAGAAGAGGCAGGCUUCGGUGGCGCGAUAGCACCAACGUCCUCAACCUCCGAUGCAUCCCAUCACAUGAUGAUGCCUGAAGUGCCUUGGUUUUUUG  -6.41
35. GACCAAUCUGCCCUCAGAGCUCGAGAACAUCUUUGGAUGCAGAGGAGGCAGGCUUCGGUGGCGCGAUGGUGCCAACGUCCUCAACCUCCAAUGCAUCCCACCACAUGAUGAUGCCUGAAGAGCCUUGGUUUUUUG  -6.49
36. GACCAAUCUGCCCUCAGAGCUCGAGAACAUCUUGGGAUGCAGAGGAGGCAGGCUUCGGUGACGCGAUAGCGCCAACGUCCUCAACCACCAAUGCAUCCCACCACAUGAUCAUGCCUGAAGAGCCUUGGUUUUUUG  -6.72
37. GACCAAUCUGCCCUCAGAGCUCGAGAACAUCUUUGGAUGCAGAGGAGGCAGGCUUCGGUGGGGCGAUAGCGCCAACGUCCUCAACCUCCAAUGCAUCCCACCACAUGAUGAUGCCUGAAGAGCCUUGGUUUUUUG  -6.83
38. GACCAAUCUGCCCUCAGAGCUCGAGAACAUCUUUGGAUGCAGGGGAGGCAGGCUUCGGUGGCACUAUAGCGCCAACGUCCUCAACCUCCAAUGCAUCCCACCACAUGAUGAUGCCUGAAGAGCAUUGGUUUUUUG  -6.99
39. GACCAAUCUGCCCUCAGAGCUCGAGAACAUCUUGUGAUGCAGAGGAGGCAGGCUUCGGUCGCGCGAUAGCGCCAACGUCCUCAACCUCCAAUGCAUCCCACCACAUGAUGAUGCCUGAAGAGCCUUCGUUUUUUG  -7.24
40. GACCAAUCUGCCCUCAGAGCUCGAGAACAUCUUGGGAUGCAGAGCAGGCAGGCUUCGGUGGCGCGAUAACGCCAACGUCCUCAACCUCCUAAGCAUCCCACCACAUGAUGAUACCUGAAGAGCCUUGGUUUUUUG  -7.28
41. GACCAAUCUGCCCUCAGAGCUCGAGAACAUCUUUGGAUGCAGAGGAGGCAGGCUUCGGUGGCGUGAUAGCGCCAACGUCCUCAACCUCCAAUGGAUCCCACCACAUGAUGAUACCUGAAGAGCCUUGGUUUUUUG  -7.42
42. GACCAAUCUGCCCUCAGAGCUCGAGAACAUCUUUGGAUGCUGAGGAGGCAGGCUUCGGUGGCGCGAUAGCGUCAACGUCCUCAACCUCCAAUGCAUCCCACCACCUGAUGAUCCCUGAAGAGCCUUGGUUUUUUG  -7.42
